Results taken from publication PMC7373190, “Archaeal Chromatin Proteins Cren7 and Sul7d Compact DNA by Bending and Bridging” (mBio, 2020).

Biological target: the molecule itself
Test: cross-linking; 10 ug protein in 10 ul, 1 mM DSP, 30 min at 25°C, 20 mM HEPES-KOH pH 7.6, 50 mM KCl, without or with pUC18 DNA (protein/DNA mass ratios 1:1 and 1:5); non-reducing 15% SDS-PAGE, Coomassie

B1: Sis7d (natural protein)
chain: MTTVKFKYKGEEKQVDTSKIKKVWRVGKMISFTYDEGGGKTGRGAVSEKDAPKELLQMLEKQKK
- stoichiometry N: 2
